The record followed here is the DeepSol protein solubility set.

This series is described as follows: soluble on expression in E. coli; label from the status in PepcDB or PDB records.
“MASVTFSVPKGFTEFSGLRSSSASLPFGKKLSSDEFVSIVSFQTSAMGSSGGYRKGVTEAKLKVAINGFGRIGRNFLRCWHGRKDSPLDIIAINDTGGVKQASHLLKYDSTLGIFDADVKPSGETAISVDGKIIQVVSNRNPSLLPWKELGIDIVIEGTGVFVDREGAGKHIEAGAKKVIITAPGKGDIPTYVVGVNADAYSHDEPIISNASCTTNCLAPFVKVLDQKFGIIKGTMTTTHSYTGDQRLLDASHRDLRRARAAALNIVPTSTGAAKAVALVLPNLKGKLNGIALRVPTPNVSVVDLVVQVSKKTFAEEVNAAFRDSAEKELKGILDVCDEPLVSVDFRCSDFSTTIDSSLTMVMGDDMVKVIAWYDNEWGYSQRVVDLADIVANNWK”: the “soluble on expression in E. coli” value is recorded as “soluble”. To “SMAPWGKRLAGVRGVLLDISGVLYDSGAGGGTAIAGSVEAVARLKRSRLKVRFCTNESAASRAELVGQLQRLGFDISEQEVTAPAPAACQILKERGLRPYLLIHDGVRSEFDQIDTSNPNCVVIADAGESFSYQNMNNAFQVLMELEKPVLISLGKGRYYAATSGLMLDVGPYMKALEYACGIKAEVVGKPSPEFFKSALQAIGVEAHQAVMIGDDIVGDVGGAQRCGMRALQVRTGKFRPSDEHHPEVKADGYVDNLAEAVDLLLQHADK” belongs “soluble”; to “MAMIHEMILDGKVVRYRVVEKPVKYVTLRVLEDGTILVVTPLEQIVREVLIKKKDWILSKISIVEEAKELSRKGFPLFGKFYSLEMGEKFEINREELRITFPGIEFLRNWIKREIKRKAREIAKDFGISPKRIYVKAMRTKWGSATWRKSITLNFSSAALPEELFHYLVIHELAHLIELNHSKRFWSLVASYHPDYKKKRRELKKWWFIVHSNETWRAILQWPEGLEHHHHHH”, “soluble”.

As to “MGSDKIHHHHHHMSQTMMLIEKSSHCVSWYDTETGALQGRLALPDFPHEFVVDQDNHYAYVGHYGVQNSGVEGTDGRSVIVIDIRKQEIVHRYDLGEHARPHGISLDAQGRLYVLSEWSGHLLVKENPRAFDQGWDHVTPVGGEKPHLFALTGDGRTAYSMNLNSGDVTVLDPYDPTRIPVSIKTGEKPEGRCLREEAGVLYTSQRISNTVAVVDTKTLQVQRIFPTPQDPCRVYYDAKRNRLVTMNHHGGSFSVFDEATGEMLHEQKTPANPLALCIDDEAAYAYIAIDCEQVQRFNLDTFEVVQTFDTGKEPDVMVILPEGYSKHWEVNA”, the “soluble on expression in E. coli” value is on record as “not soluble”. To “MGSDKIHHHHHHMSMILTSKFVDRERELNFLREHYHSGKAELIVIYGRRRIGKTYLLRKFLEETNGIYLLAEENETNLEDFSLRLADYFKDPFLKENPIRTWGAFFTYLAGKSTKRLVVVIDGVQYLVRAEKGFLSTLQKYWDLYLSSTKIMLILCGSLVSFMEGILSGKSPIYGRRTGTWKVEEMSFFDVLKFHPIDIETAIKIYGVFGGVPQYWVDYDPGKDFWENIKDLVLSKGAKYYDEPKYLLKEELRDVSRYFSILRAISLGYSRFGQIADAARIETKSLGKYLNVLEEMGYIREEKPIVGRGKTVYKINEHFFNFWFRFVFPRRSEIEMGFDVVEEIKKEFNNYLGPVFEEISRQFLIEMNKRKKLPFRFTKIGRWWYKGEEIDLVALNEDEKKALFIEVKWKNLERKEAYKILKDLKRKAELTGLHDWNKAYGIIAKSIMEKEELREEGFLAWDLRDFELIN” belongs “not soluble”.

On to “MSLRRLLQVFFFCPKQIYSFKLYQSLIFYNYTDAFFSVKIVSTTNFGGHIMSTTIIGFPRLGEFRELKFTTEKYFRKEISEEELLAAAKDLRAKHWNIVKEKGITEIPSNDFSHYDNFLDAAFLFNVVPASVQNLDLSDLERYFALGRGYQGEKGDVRALPMKKWFNTNYHYIVPKFEKDTQVKLAGHKIFDEFQEAKELGLNTRPVLVGPFTFLQLSDFEEGVKADDFVDSFVAAYQEVFAKLADLGATRIQLDEAALVKDLTAEEKALFLNLYNKLLADKKGLEVLFQTYFGDVRDVYADLVNLPVDAIGLDFVEGKKTLELVKGGFPADKTLYVGIVNGKNIWRNNYEKSLTVLEQIPAENIVLTSSCSLLHVPFTTANEEFEPALLNHFAFAVEKLDEIRDLDAIRNGQGSEALAANKELFATERVGENAELRARIAGLTDADYTRLPAFAEREAIQEEAFKLPALPTTTIGSFPQTKEVRAKRLAYRKGELSQKEYDAFLAETIDEWIKWQEDIDFDVLVHGEFERNDMVEYFGQNLSGYLFSKNGWVQSYGMRGVKPPIIWGDVTRLNPITVKWSSYAQSRTNKPVKGMLTGPVTILNWSFPREDISIKDSTLQIALAIKDEVLDLEAAGVKIIQIDEAALREKLPLRRSDWYEDYLDWAIPAFRLVHSTVAPDTQIHTHMCYSEFTDIIPAIDNMDADVISFEASRSNLEILDELKAKNFQTEVGPGVYDIHSPRVPNEGEIDNTIEAILAKVPSKKVWINPDCGLKTRGIPETKESLIRLVEAAKAAREKLEGHHHHHH”, for which the “soluble on expression in E. coli” value is listed as “soluble”. With “MGSDKIHHHHHHADTTDNTTTSSSTSANSGSTVQTKALSKAYVVYGAGLASEDKDTVASALGVKSNYTALTATGSDYATYLNAAGTTDASMISSVTLAPADPGTGVKVNIAKYNGSNNITEVTSQQYAMVATMAGVKDVIITVTADKSVSGESALTGVYKALAADGLTLNSQNTQAANGVLDATQPAIDSNSSDKKYPGKLMSAVGSVSSDLAKQRQNGNELATKADIEEMLQKALAKQGIANQTSSTQITNIAIALSQVQKAPVSTSKTYIKNVTNVADSLANSIGDKMASVKDFANSADAKQAENFIVQIWHNVVNFFKGLIGG”, the “soluble on expression in E. coli” value is “not soluble”. “GSMSTKNFRVSDGDWICPDKKCGNVNFARRTSCDRCGREKTTGPI”: the “soluble on expression in E. coli” value is listed as “soluble”. To “MSLRDSAFFETGEKHFRTLCSSCHSAHQEIYGPMLGSISKKRKESWLIPFIRNSQEVIRSGDAYAKALFEKFDHQIMPPFEQLSDQDIKAILYYLEIESLQPQEYLNDAAIPPTSDSSVIRGKQEFLDHCSMCHFVHKESTFAPALGSVTKRHSREWLISFIQNSEKKINQGDAYAVHLFNQFDQHVMTNMDFLPIEEINAILDYIEFASTVDVAEGHHHHHH” belongs “not soluble”; to “MGSDKIHHHHHHMSVGEAMDTEVRAAAQAVCLAFNENPEAVEPRVQAAIAAAAARINRYPFDAEPRVMRKLAEHFSCPEDNLMLVRGIDECFDRISAEFSSMRFVTAWPGFDGYRARIAVSGLRHFEIGLTDDLLLDPNDLAQVSRDDCVVLANPSNPTGQALSAGELDQLRQRAGKLLIDETYVDYSSFRARGLAYGENELVFRSFSKSYGLAGLRLGALFGPSELIAAMKRKQWFCNVGTLDLHALEAALDNDRAREAHIAKTLAQRRRVADALRGLGYRVASSEANFVLVENAAGERTLRFLRERGIQVKDAGQFGLHHHIRISIGREEDNDRLLAALAEYSDHS”, “not soluble”.

As for “SKLNERSVAHYALSDSPADHMGFLRTWGGPGTPPTPSGTGRRCWFVLKGNLLFSFESREGRAPLSLVVLEGCTVELAEAPVPEEFAFAICFDAPGVRPHLLAAEGPAAQEAWVKVLSRASFGYMRLVVRELESQLQDARQSLALQRRSSWKSVASRCKPQAPNHRAAGLENGHCLSKDSSPVGLVEEAGSRSAGWGLAEWELQGPASLLLGKGQSPVSPETSCFSTLHDWYGQEIVELRQCWQKRAQGSHSKCEEQDRP”, the “soluble on expression in E. coli” value is “soluble”. To “MGSDKIHHHHHHMKTNYRLHMQQGSDYLKKFLEKHIDLLKKIPLFEGIKSDELEEMLECLGVVDKTYPKDSIIFSVGSEVTSIGIMLKGSAHIIKEDIEGNRNIVAELLPGDLFGEVFACTRLHKSNVTVTTTSSCEVLFIKFKSVTGICSSTCVFHNRLVENMLQLIAEKNILLHNKIELLSRKTTREKLLMYFSKQIEQTGSHQFTIPFSRNEMADFLCVDRSSMSRELGKMRDEGLLSFNKNKFEIFYFKK” belongs “not soluble”. The value for “MVALPTINQLVRKGREKVRKKSKVPALKGAPFRRGVCTVVRTVTPKKPNSALRKVAKVRLTSGYEVTAYIPGEGHNLQEHSVVLIRGGRVKDLPGVRYHIVRGVYDAAGVKDRKKSRSKYGTKKPKEAAKTAAKK” was “soluble”; that for “MLTTLSCCCNMPVVKVNCWNNMKVQIKSITQWGGVLLLSFSSCYVNANKLIKPNILFIAVDDLKPLIRDYGTAKVQTPNIDKLASQSTVFTRAYSQYPVCGPSRMSILTGLRPESNGIMNLKDKIRDVNPSVITLPQFFKNNGYETAATGKIFDPRNTTSRSEEEVLSWSIPYQRPKHGLKGKTRLAVESIDEPDEKFVDGGILKRGKKLLKQMANKNKPFFLAVGFKKPHLPFVAPKKYYDLYSRESFDLASYQSAPEDADTTYLFHKNQELRGYKPTPIKGGEIKPYPKGKLSSAHQKELLHGYFASVSFIDSLVGELLEELEKTGQAENTVIVFWGDHGFHLGDHGLWGKHTTMEQANHVPLIIKIPGSKANRYAKPVELLDVFPSLTEAAGLSIPNNLQGTSLVSLVTGKLKSIDKVAISQYKRKGAYGYSMRTEQYRYTQWVTPSGKVVYRDLYDLINDPLETKNIINTPEGKLLEVELNKQLHTNSAGLKRLKLEHHHHHH” was “not soluble”; that for “MSLNPANLPFDSDTMLQGLRAWVECESPTWDTAAVERMLDLAAREMAIMGATIERIAGRQGFAGCVRARFPHPKQGEPGILIAGHLDTVHPVGTLSKLPFRREGNKAFGPGIFDMKGGNYLTLEAIKQLARASFTTPLPITVLFTPDEEVGTPSTRDIIEAEAARNKYVLVPEPGRPDNGVVTGRYAIARFNLEAIGKPSHAGATLSSGRSAIREMAKQILAIDAMTTEDCTFSVGIVHGGQWVNCVATTCTGEALSMAKRQADLDRGVDRMLALSGSSSDVTFKVTRGVTRPVWEPDSGTMALYEKARAVASQLGVSLPHGSAGGGSDGNFTGAMGIPTLDGLGVRGADAHTLNEHIEVDSLAERGRLMAGLLATLEEGHHHHHH” was “not soluble”. On to “SLTRRADDGPLVLTGANAPMSATTASGQADASFFDPGLLRRFGITRVGDVTGLDIIGIPVWFAARPNSRGLSVSQGKGLFADQARLSAIMEAIEGAVAEETRRHVTAFGSIEEMRNKGVPLIPFETVGRIDPDALDLRKERAWVKGTSIRQQQEVFAPYELIGMDFRAEFPWDRQAFRMSSQGLAAGFEQDHAVLHALLELIENDASFLVDTFETRAITPQPFLLSAGMDSLLDDLIQHLSNIGLPPSFFDLTNALGVPVVMASLPRSLQAEDGPATRSAAGAACRPNTHAAAMAALLEAIQSRLTDISGARDDLSPLRYQRDLSTSGPTASRAQPLRQMPADLNFPESDLSLPPWRQLAEHLFARGIEDIHVFPLETEVSGLHVVRILASGLAPAGGGLQHISPRTLDHLLNLGGT”, for which the “soluble on expression in E. coli” value was “soluble”. To “MSLSVLNGYQLIISDVDGVIVREGDPIWENIQALRNIQNNGVKIIFVTNNSGFSRILLSRQLSYLGLKVTPDMIITSGLAAAIYMKEKLNVKSVFAVGEEGLIEELKNHGFLVFSSAESERILPDAVVMGLDRLSTYDKLSLAMRCISKGSKFIVTNMDRLWPAKDGLKLGAGALASSIIYALRRDPDFIAGKPNTWIVEIAMRISNVKKLDKILVIGDQIETDIQMGYNIGADTALVLTGISNVDDVDRSNVKPKYVVNTLLDLLEGHHHHHH” belongs “soluble”; to “MSESLTWHDVIGNEKQQAYFQQTLQFVESQRQAGKVIYPPAKDVFNAFRFTEFGDVKVVILGQDPYHGPNQAHGLCFSVLPGVKTPPSLVNIYKELAQDIPGFQIPPHGYLQSWAQQGVLLLNTVLTVEQGMAHSHANTGWETFTDRVIDALNQHRNGLIFLLWGSHAQKKGQMIDRQRHHVLMAPHPSPLSAHRGFLGCRHFSKTNQLLQAQGIAPINWQPELES”, “soluble”. The value for “MGSDKIHHHHHHMFTQDESYIKWKLFLEGDDQAYSWIYTHYIQVLYNYGLQITPDSEIVKDCIQDVFVKIYKAKKKLTVPQNPKVYLMIALKNNIYNTFNQERLQKNYAFSLYQTEEQLTVKNEFIDQEARHEEMNNIKRMMKILTPRQREVIYYRFIEELSYDDICQIMGLNYQSAYNLLQRSLQKIREAYGVTGIWMLILHQLTYLH” was “not soluble”.
